# Test results published in patent publication US20130005646A1 (Novo Nordisk, published 2013).
# Starred links: 1 amine or outer side, 2 acyl side, 3 side chain; linkers in the order of their positions; H or OH if unused. Positions of bridges follow the written chain, without caps; N, C: chain ends. Groups on a side chain read outwards from the residue. No end group written: not given here. *: point of attachment. C20 diacid = O=C(O)CCCCCCCCCCCCCCCCCCC(=O)*; C18 diacid = O=C(O)CCCCCCCCCCCCCCCCC(=O)*; γGlu = O=C(O)[C@H](CCC(=O)[*:2])N[*:1]; AEEA = NCCOCCOCC(=O)O
# T1: human amylin 3(a) receptor (human calcitonin receptor + RAMP-3) (human, UniProt P30988 25-474; O60896 24-148)
# T1 sequence (looked up) 1: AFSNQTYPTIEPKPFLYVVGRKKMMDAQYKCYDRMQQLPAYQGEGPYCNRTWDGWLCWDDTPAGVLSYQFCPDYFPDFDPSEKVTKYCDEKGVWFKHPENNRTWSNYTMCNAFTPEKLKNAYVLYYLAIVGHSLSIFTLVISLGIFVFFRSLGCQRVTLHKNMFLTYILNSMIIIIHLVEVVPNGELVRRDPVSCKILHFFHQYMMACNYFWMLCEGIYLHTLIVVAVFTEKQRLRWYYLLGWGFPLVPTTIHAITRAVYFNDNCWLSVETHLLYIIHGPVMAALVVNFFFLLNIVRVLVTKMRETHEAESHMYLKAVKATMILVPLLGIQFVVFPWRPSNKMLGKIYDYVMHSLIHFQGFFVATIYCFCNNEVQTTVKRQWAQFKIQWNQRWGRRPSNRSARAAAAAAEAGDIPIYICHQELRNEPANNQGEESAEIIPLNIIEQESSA
# T1 sequence (looked up) 2: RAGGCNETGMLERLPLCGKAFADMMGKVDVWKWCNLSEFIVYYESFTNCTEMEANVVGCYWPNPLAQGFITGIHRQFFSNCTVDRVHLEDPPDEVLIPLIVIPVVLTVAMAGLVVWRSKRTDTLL
# T2: human calcitonin (a) receptor (human, UniProt P30988 25-474)
# T2 sequence (looked up): T1 sequence (looked up) 1
# B1: N-alpha-[(S)-4-Carboxy-4-(19-carboxynonadecanoylamino)butyryl]-His-[Glu14,Arg17,His35]-pramlintide (peptide)
# peptide: {C20 diacid-γGlu}-HKCNTATCATQRLAEFLRHSSNNFGPILPPTNVGSHTY-NH2
# modifications: disulfide 3-8
# SMILES: CC[C@H](C)[C@H](NC(=O)[C@@H]1CCCN1C(=O)CNC(=O)[C@H](Cc1ccccc1)NC(=O)[C@H](CC(N)=O)NC(=O)[C@H](CC(N)=O)NC(=O)[C@H](CO)NC(=O)[C@H](CO)NC(=O)[C@H](Cc1c[nH]cn1)NC(=O)[C@H](CCCNC(=N)N)NC(=O)[C@H](CC(C)C)NC(=O)[C@H](Cc1ccccc1)NC(=O)[C@H](CCC(=O)O)NC(=O)[C@H](C)NC(=O)[C@H](CC(C)C)NC(=O)[C@H](CCCNC(=N)N)NC(=O)[C@H](CCC(N)=O)NC(=O)[C@@H](NC(=O)[C@H](C)NC(=O)[C@@H]1CSSC[C@H](NC(=O)[C@H](CCCCN)NC(=O)[C@H](Cc2c[nH]cn2)NC(=O)CC[C@H](NC(=O)CCCCCCCCCCCCCCCCCCC(=O)O)C(=O)O)C(=O)N[C@@H](CC(N)=O)C(=O)N[C@@H]([C@@H](C)O)C(=O)N[C@@H](C)C(=O)N[C@@H]([C@@H](C)O)C(=O)N1)[C@@H](C)O)C(=O)N[C@@H](CC(C)C)C(=O)N1CCC[C@H]1C(=O)N1CCC[C@H]1C(=O)N[C@H](C(=O)N[C@@H](CC(N)=O)C(=O)N[C@H](C(=O)NCC(=O)N[C@@H](CO)C(=O)N[C@@H](Cc1c[nH]cn1)C(=O)N[C@H](C(=O)N[C@@H](Cc1ccc(O)cc1)C(N)=O)[C@@H](C)O)C(C)C)[C@@H](C)O
# B2: N-alpha-[(S)-4-Carboxy-4-(19-carboxynonadecanoylamino)butyryl]-His-His-[Glu14,Arg17,His35]-pramlintide (peptide)
# peptide: {C20 diacid-γGlu}-HHKCNTATCATQRLAEFLRHSSNNFGPILPPTNVGSHTY-NH2
# modifications: disulfide 4-9
# SMILES: CC[C@H](C)[C@H](NC(=O)[C@@H]1CCCN1C(=O)CNC(=O)[C@H](Cc1ccccc1)NC(=O)[C@H](CC(N)=O)NC(=O)[C@H](CC(N)=O)NC(=O)[C@H](CO)NC(=O)[C@H](CO)NC(=O)[C@H](Cc1c[nH]cn1)NC(=O)[C@H](CCCNC(=N)N)NC(=O)[C@H](CC(C)C)NC(=O)[C@H](Cc1ccccc1)NC(=O)[C@H](CCC(=O)O)NC(=O)[C@H](C)NC(=O)[C@H](CC(C)C)NC(=O)[C@H](CCCNC(=N)N)NC(=O)[C@H](CCC(N)=O)NC(=O)[C@@H](NC(=O)[C@H](C)NC(=O)[C@@H]1CSSC[C@H](NC(=O)[C@H](CCCCN)NC(=O)[C@H](Cc2c[nH]cn2)NC(=O)[C@H](Cc2c[nH]cn2)NC(=O)CC[C@H](NC(=O)CCCCCCCCCCCCCCCCCCC(=O)O)C(=O)O)C(=O)N[C@@H](CC(N)=O)C(=O)N[C@@H]([C@@H](C)O)C(=O)N[C@@H](C)C(=O)N[C@@H]([C@@H](C)O)C(=O)N1)[C@@H](C)O)C(=O)N[C@@H](CC(C)C)C(=O)N1CCC[C@H]1C(=O)N1CCC[C@H]1C(=O)N[C@H](C(=O)N[C@@H](CC(N)=O)C(=O)N[C@H](C(=O)NCC(=O)N[C@@H](CO)C(=O)N[C@@H](Cc1c[nH]cn1)C(=O)N[C@H](C(=O)N[C@@H](Cc1ccc(O)cc1)C(N)=O)[C@@H](C)O)C(C)C)[C@@H](C)O
# B3: N-alpha-[(S)-4-Carboxy-4-(17-carboxyheptadecanoylamino)butyryl]-His-[Glu14,His17,His35]-pramlintide (peptide)
# peptide: {C18 diacid-γGlu}-HKCNTATCATQRLAEFLHHSSNNFGPILPPTNVGSHTY-NH2
# modifications: disulfide 3-8
# SMILES: CC[C@H](C)[C@H](NC(=O)[C@@H]1CCCN1C(=O)CNC(=O)[C@H](Cc1ccccc1)NC(=O)[C@H](CC(N)=O)NC(=O)[C@H](CC(N)=O)NC(=O)[C@H](CO)NC(=O)[C@H](CO)NC(=O)[C@H](Cc1c[nH]cn1)NC(=O)[C@H](Cc1c[nH]cn1)NC(=O)[C@H](CC(C)C)NC(=O)[C@H](Cc1ccccc1)NC(=O)[C@H](CCC(=O)O)NC(=O)[C@H](C)NC(=O)[C@H](CC(C)C)NC(=O)[C@H](CCCNC(=N)N)NC(=O)[C@H](CCC(N)=O)NC(=O)[C@@H](NC(=O)[C@H](C)NC(=O)[C@@H]1CSSC[C@H](NC(=O)[C@H](CCCCN)NC(=O)[C@H](Cc2c[nH]cn2)NC(=O)CC[C@H](NC(=O)CCCCCCCCCCCCCCCCC(=O)O)C(=O)O)C(=O)N[C@@H](CC(N)=O)C(=O)N[C@@H]([C@@H](C)O)C(=O)N[C@@H](C)C(=O)N[C@@H]([C@@H](C)O)C(=O)N1)[C@@H](C)O)C(=O)N[C@@H](CC(C)C)C(=O)N1CCC[C@H]1C(=O)N1CCC[C@H]1C(=O)N[C@H](C(=O)N[C@@H](CC(N)=O)C(=O)N[C@H](C(=O)NCC(=O)N[C@@H](CO)C(=O)N[C@@H](Cc1c[nH]cn1)C(=O)N[C@H](C(=O)N[C@@H](Cc1ccc(O)cc1)C(N)=O)[C@@H](C)O)C(C)C)[C@@H](C)O
# B4: N-alpha-[(S)-4-Carboxy-4-(17-carboxyheptadecanoylamino)butyryl]-His-[Glu14,Arg17,His35]-pramlintide (peptide)
# peptide: {C18 diacid-γGlu}-HKCNTATCATQRLAEFLRHSSNNFGPILPPTNVGSHTY-NH2
# modifications: disulfide 3-8
# SMILES: CC[C@H](C)[C@H](NC(=O)[C@@H]1CCCN1C(=O)CNC(=O)[C@H](Cc1ccccc1)NC(=O)[C@H](CC(N)=O)NC(=O)[C@H](CC(N)=O)NC(=O)[C@H](CO)NC(=O)[C@H](CO)NC(=O)[C@H](Cc1c[nH]cn1)NC(=O)[C@H](CCCNC(=N)N)NC(=O)[C@H](CC(C)C)NC(=O)[C@H](Cc1ccccc1)NC(=O)[C@H](CCC(=O)O)NC(=O)[C@H](C)NC(=O)[C@H](CC(C)C)NC(=O)[C@H](CCCNC(=N)N)NC(=O)[C@H](CCC(N)=O)NC(=O)[C@@H](NC(=O)[C@H](C)NC(=O)[C@@H]1CSSC[C@H](NC(=O)[C@H](CCCCN)NC(=O)[C@H](Cc2c[nH]cn2)NC(=O)CC[C@H](NC(=O)CCCCCCCCCCCCCCCCC(=O)O)C(=O)O)C(=O)N[C@@H](CC(N)=O)C(=O)N[C@@H]([C@@H](C)O)C(=O)N[C@@H](C)C(=O)N[C@@H]([C@@H](C)O)C(=O)N1)[C@@H](C)O)C(=O)N[C@@H](CC(C)C)C(=O)N1CCC[C@H]1C(=O)N1CCC[C@H]1C(=O)N[C@H](C(=O)N[C@@H](CC(N)=O)C(=O)N[C@H](C(=O)NCC(=O)N[C@@H](CO)C(=O)N[C@@H](Cc1c[nH]cn1)C(=O)N[C@H](C(=O)N[C@@H](Cc1ccc(O)cc1)C(N)=O)[C@@H](C)O)C(C)C)[C@@H](C)O
# B5: N-epsilon25-[2-(2-{2-[2-(2-{2-[(S)-4-Carboxy-4-(17-carboxyheptadecanoylamino)butyrylamino]ethoxy}ethoxy)acetylamino]ethoxy}ethoxy)acetyl]-[Glu14,Ser21,Lys25]-pr … (peptide)
# peptide: KCNTATCATQRLAEFLVHSSSNFGK([AEEA-AEEA-γGlu-C18 diacid])ILPPTNVGSNTY-NH2
# modifications: disulfide 2-7; N-terminus assumed
# SMILES: CC[C@H](C)[C@H](NC(=O)[C@H](CCCCNC(=O)COCCOCCNC(=O)COCCOCCNC(=O)CC[C@H](NC(=O)CCCCCCCCCCCCCCCCC(=O)O)C(=O)O)NC(=O)CNC(=O)[C@H](Cc1ccccc1)NC(=O)[C@H](CC(N)=O)NC(=O)[C@H](CO)NC(=O)[C@H](CO)NC(=O)[C@H](CO)NC(=O)[C@H](Cc1c[nH]cn1)NC(=O)[C@@H](NC(=O)[C@H](CC(C)C)NC(=O)[C@H](Cc1ccccc1)NC(=O)[C@H](CCC(=O)O)NC(=O)[C@H](C)NC(=O)[C@H](CC(C)C)NC(=O)[C@H](CCCNC(=N)N)NC(=O)[C@H](CCC(N)=O)NC(=O)[C@@H](NC(=O)[C@H](C)NC(=O)[C@@H]1CSSC[C@H](NC(=O)[C@@H](N)CCCCN)C(=O)N[C@@H](CC(N)=O)C(=O)N[C@@H]([C@@H](C)O)C(=O)N[C@@H](C)C(=O)N[C@@H]([C@@H](C)O)C(=O)N1)[C@@H](C)O)C(C)C)C(=O)N[C@@H](CC(C)C)C(=O)N1CCC[C@H]1C(=O)N1CCC[C@H]1C(=O)N[C@H](C(=O)N[C@@H](CC(N)=O)C(=O)N[C@H](C(=O)NCC(=O)N[C@@H](CO)C(=O)N[C@@H](CC(N)=O)C(=O)N[C@H](C(=O)N[C@@H](Cc1ccc(O)cc1)C(N)=O)[C@@H](C)O)C(C)C)[C@@H](C)O
# B6: N-alpha-[(S)-4-Carboxy-4-(19-carboxynonadecanoylamino)butyryl]-[des1,Glu14,His17,His35]-pramlintide (peptide)
# peptide: {C20 diacid-γGlu}-CNTATCATQRLAEFLHHSSNNFGPILPPTNVGSHTY-NH2
# modifications: disulfide 1-6
# SMILES: CC[C@H](C)[C@H](NC(=O)[C@@H]1CCCN1C(=O)CNC(=O)[C@H](Cc1ccccc1)NC(=O)[C@H](CC(N)=O)NC(=O)[C@H](CC(N)=O)NC(=O)[C@H](CO)NC(=O)[C@H](CO)NC(=O)[C@H](Cc1c[nH]cn1)NC(=O)[C@H](Cc1c[nH]cn1)NC(=O)[C@H](CC(C)C)NC(=O)[C@H](Cc1ccccc1)NC(=O)[C@H](CCC(=O)O)NC(=O)[C@H](C)NC(=O)[C@H](CC(C)C)NC(=O)[C@H](CCCNC(=N)N)NC(=O)[C@H](CCC(N)=O)NC(=O)[C@@H](NC(=O)[C@H](C)NC(=O)[C@@H]1CSSC[C@H](NC(=O)CC[C@H](NC(=O)CCCCCCCCCCCCCCCCCCC(=O)O)C(=O)O)C(=O)N[C@@H](CC(N)=O)C(=O)N[C@@H]([C@@H](C)O)C(=O)N[C@@H](C)C(=O)N[C@@H]([C@@H](C)O)C(=O)N1)[C@@H](C)O)C(=O)N[C@@H](CC(C)C)C(=O)N1CCC[C@H]1C(=O)N1CCC[C@H]1C(=O)N[C@H](C(=O)N[C@@H](CC(N)=O)C(=O)N[C@H](C(=O)NCC(=O)N[C@@H](CO)C(=O)N[C@@H](Cc1c[nH]cn1)C(=O)N[C@H](C(=O)N[C@@H](Cc1ccc(O)cc1)C(N)=O)[C@@H](C)O)C(C)C)[C@@H](C)O
# Tests used:
# [1] = biological target: T1, human amylin 3(a) receptor (human …); test: cell-based or functional assay
# [2] = biological target: T2, human calcitonin (a) receptor; test: cell-based or functional assay
Binder,Amylin receptor human EC50 [1] [pM],CTa receptor human EC50 [2] [pM]
B1,93.5,430
B2,101,614
B3,58.5,99
B4,79.5,946
B5,89,100
B6,366,286
